Assay results from patent US20240287208A1 (CONCEPT TO MEDICINE BIOTECH, published 2024).
Positions count from the first letter of the chain named. Each block holds one binder with its values, some of them ahead of it.

Assays:
human 5T4 = target: T1, human 5T4 (human, UniProt Q13641 32-355, limits assumed); assay: competitive ELISA on human 5T4
T1 construct: also called hu5T4
T1 sequence (looked up): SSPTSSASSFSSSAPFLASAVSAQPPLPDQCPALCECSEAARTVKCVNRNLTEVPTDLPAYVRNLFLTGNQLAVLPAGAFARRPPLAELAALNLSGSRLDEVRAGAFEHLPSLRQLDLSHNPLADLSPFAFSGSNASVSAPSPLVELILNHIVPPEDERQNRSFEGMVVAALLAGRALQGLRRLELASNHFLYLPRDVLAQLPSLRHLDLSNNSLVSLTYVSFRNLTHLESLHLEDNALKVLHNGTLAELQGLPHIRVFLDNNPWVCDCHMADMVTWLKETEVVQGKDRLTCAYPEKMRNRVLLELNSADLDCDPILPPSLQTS

human CD40-His protein [1] = target: T2, human CD40-His protein (human, UniProt P25942 21-193); assay: SPR Biacore T200, antibody captured on Protein A, CD40-His as analyte
T2 construct: His-tagged recombinant protein; also called human CD40-his tag; recombinant CD40 protein
Method: (§1) The binding of the humanized 42p155 and 2p442 antibodies to recombinant human CD40 protein (human CD40-his tag) was tested by Biacore and Octet, respectively, using a capture method.
For humanized 42p155 monoclonal antibodies, 42p155z2 and 42p155z3 were captured using Protein A chip. A serial dilution of human CD40-his tag protein was injected over captured antibody for 3 mins at a flow rate of 10 μl/min. The antigen was allowed to dissociate for 6 min. All the experiments were carried out on a Biacore T200. Data analysis was carried out using Biacore T200 evaluation software.

[2] = target: T3, human CD40 on the cell surface (human, UniProt P25942 21-277); assay: FACS, Jurkat cells overexpressing human CD40, PE anti-human IgG, MFI
T3 construct: whole, on cells; also called cell surface CD40; Jurkat-CD40
Method: (§2) To evaluate the binding affinity of 5T4-CD40 bispecific antibodies to cell surface CD40, bispecific antibodies with formats of b 1 (42p155z2), b12 (42p155z2), b13 (42p155z2), b16 (42p155z2), b17 (42p155z2) and b18 (2p1130) were tested in Jurkat cell lines that overexpressed CD40 by FACS. A total number of 1×10⁵ Jurkat-CD40 cells in each well were incubated with 5-fold serially diluted antibodies starting from 100 nM for 30 minutes at 4° C. in FACS buffer. After wash by FACS buffer, PE conjugated-anti-human IgG antibody was added to each well and incubated at 4° C. for 30 minutes. After wash, MFI of PE was evaluated by MACSQuant Analyzer 16.

human CD40-His protein [3] = target: T2, human CD40-His protein; assay: BLI Octet RED96e, antibody captured on AHC, CD40-His as analyte
Method: as §1
For humanized 2p442 monoclonal antibodies, 2p442z8, 2p442z9 and 2p442z10 were captured using AHC biosensor. A serial dilution of human CD40-his tag protein was incubated with captured antibody for 5 mins. The antigen was allowed to dissociate for 10 min. All the experiments were carried out on an Octet RED96e. Data analysis was carried out using Octet Analysis Studio 12.2 software.

[4] = target: T3, human CD40 on the cell surface; assay: FACS, Jurkat cells overexpressing human CD40, PE anti-human IgG, MFI; remark: listed apart in the source
Method: as §2, with “humanized 2p442 monoclonal” for “5T4-CD40 bispecific”, “2p442z8, 2p442z9, 2p442z10” for “bispecific antibodies with formats of b 1 (42p155z2), b12 (42p155z2), b13 (42p155z2), b16 (42p155z2), b17 (42p155z2)”, “parental 2p442” for “b18 (2p1130)”, “3-fold” for “5-fold”

[5] = target: T3, human CD40 on the cell surface; assay: cell-based or functional assay
[6] = target: T4, cynomolgus CD40-His protein (cynomolgus, UniProt G7PG38 21-193); assay: ELISA, plate-coated cynomolgus CD40-His
T4 construct: His-tagged recombinant protein; also called cyno CD40 antigen
Method: (§3) To evaluate the binding activity of clones 42p155, 2p834, 2p931, 42p655, 2p1294, 2p957, 42p495, 3p78, 2p415, 2p442, 2p551, 2p80 and 2p1130, the chimeric monospecific antibody (mAb) from these clones were subjected to ELISA test, along with selicrelumab, the clinical benchmark anti-CD40 agonist antibodies.
The binding affinity of these clones to cynomolgus CD40 was also tested. Microtiter plates were coated with cynomolgus CD40-His protein at 1.0 μg/ml in PBS, 100 µl/well at 4° C. overnight, then blocked with 150 µl/well of 1% BSA. Ten-fold dilutions of 42p155, 2p834, 2p931, 42p655, 2p1294, 2p957, 42p495, 3p78, 2p415, 2p442, 2p551, 2p80 and 2p1130 antibodies starting from 100 nM were added to each well and incubated for 1 hour at RT. The plates were washed with PBS/Tween and then incubated with Anti-Human IgG (H&L) (GOAT) Antibody Peroxidase Conjugated for 30 mins at RT. After washing, the plates were developed with TMB substrate and analyzed by spectrophotometer at OD 450 nm. As shown in FIG. 1B and Table 2, all these clones bound to cynomolgus CD40 at high activity, showing good cross-reactivity between human and cynomolgus CD40 proteins.

human OX40 protein = target: T5, human OX40 protein (human, UniProt P43489 29-216, limits assumed); assay: ELISA, plate-coated protein
T5 sequence (looked up): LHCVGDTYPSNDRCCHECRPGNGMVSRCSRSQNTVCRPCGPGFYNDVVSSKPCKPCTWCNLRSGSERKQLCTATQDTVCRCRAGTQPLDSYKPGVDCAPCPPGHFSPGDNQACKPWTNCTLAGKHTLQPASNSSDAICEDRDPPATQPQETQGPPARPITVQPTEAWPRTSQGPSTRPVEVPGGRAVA
Method: (§4) To evaluate the cross reactivity of chimeric anti-CD40 antibodies to other family members of TNF receptors, the ELISA binding towards human 4-1BB and human OX40 were performed.
(§5) Briefly, microtiter plates were coated with human 4-1BB protein or human OX40 protein at 1 μg/ml in PBS, 100 μl/well at 4° C. overnight, then blocked with 150 μl/well of 1% BSA. Ten-fold dilutions of 42p155, 2p834, 2p931, 42p655, 2p1294, 2p957, 42p495, 3p78, 2p415, 2p442, 2p551, 2p80 and 2p1130 antibodies starting from 100 nM were added to each well and incubated for 1 hour at RT. The plates were washed with PBS/Tween and then incubated with Anti-Human IgG (H&L) (GOAT) Antibody Peroxidase Conjugated for 30 mins at RT. After washing, the plates were developed with TMB substrate and analyzed by spectrophotometer at OD 450 nm.

human 4-1BB protein = target: T6, human 4-1BB protein (human, UniProt Q07011 24-186); assay: ELISA, plate-coated protein
T6 construct: also called 4-IBB
Method: as §4, §5

human CD40-His protein [7] = target: T2, human CD40-His protein; assay: ELISA, plate-coated human CD40-His
Method: as §3
as §5, with “human CD40-His” for “human 4-1BB protein or human OX40”, “at 1.0” for “at 1”, “150 µl/well” for “150 μl/well”

T2 sequence (P25942 21-193 limits assumed): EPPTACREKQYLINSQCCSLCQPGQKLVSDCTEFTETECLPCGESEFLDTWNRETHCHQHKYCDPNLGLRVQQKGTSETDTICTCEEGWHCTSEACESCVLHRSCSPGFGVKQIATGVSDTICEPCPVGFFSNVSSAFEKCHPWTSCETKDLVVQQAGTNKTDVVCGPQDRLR
T3 sequence (P25942 21-277): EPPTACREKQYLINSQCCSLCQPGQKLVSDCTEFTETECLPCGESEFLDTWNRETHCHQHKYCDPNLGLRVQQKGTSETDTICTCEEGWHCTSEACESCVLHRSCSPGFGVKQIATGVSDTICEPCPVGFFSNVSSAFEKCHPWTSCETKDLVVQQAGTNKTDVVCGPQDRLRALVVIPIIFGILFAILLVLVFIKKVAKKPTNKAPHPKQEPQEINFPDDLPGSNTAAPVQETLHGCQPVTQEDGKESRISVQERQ

binding result (human 5T4): binds
B1: 14G12 anti-5T4 mouse monoclonal antibody (antibody, V domains shown)
VH: EVQLQQSGPELVKPGASVKISCKASGYAFSSSWMNWVKQRPGKGLEWIGRIYREDGHTNYNGKFKGKATLTADKSSTTAYMQLTSLTSEDSAVYFCANGGAMDYWGQGTSVTVSS
VL: DIQMTQSTSSLSASLGDRVTISCRASQDISNYLNWYQQKPDGTVKLLIYYTSRLHSGVPSRFSGSGSGTDYSLTISNLEQEDIATYFCQQDNTLPWTFGGGTKLEIK
notes: Mouse monoclonal antibody from hybridoma

Kd (human CD40-His protein [1]): 186 nM
koff (human CD40-His protein [1]): 0.0368 s⁻¹
kon (human CD40-His protein [1]): 198000 M⁻¹ s⁻¹
B2: 42p155z2 humanized monoclonal antibody (antibody, V domains shown)
VH: EVQLVESGGGLVQPGGSLRLSCAASGFAFRSYTMSWVRQAPGKGLEWVSTITHNGAITTYAESAQGRFTISRDNSKNTLYLQMNSLRAEDTAVYYCAQGGGSNYYRESWGQGTQVTVSS
notes: Humanized monoclonal antibody captured on Protein A; also called VHHz2

Kd (human CD40-His protein [1]): 193 nM
koff (human CD40-His protein [1]): 0.0555 s⁻¹
kon (human CD40-His protein [1]): 287000 M⁻¹ s⁻¹
B3: 42p155z3 humanized monoclonal antibody (antibody, V domains shown)
VH: B2 VH with A88P
notes: Humanized monoclonal antibody captured on Protein A; also called VHHz3

binding result [2]: binds
B4: b12 (42p155z2) anti-5T4/CD40 bispecific antibody (bispecific antibody, human IgG1, kappa, N297A)
heavy 1: EVQLQQSGPELVKPGASVKISCKASGYAFSSSWMNWVKQRPGKGLEWIGRIYREDGHTNYNGKFKGKATLTADKSSTTAYMQLTSLTSEDSAVYFCANGGAMDYWGQGTSVTVSSASTKGPSVFPLAPSSKSTSGGTAALGCLVKDYFPEPVTVSWNSGALTSGVHTFPAVLQSSGLYSLSSVVTVPSSSLGTQTYICNVNHKPSNTKVDKKVEPKSCDKTHTCPPCPAPELLGGPSVFLFPPKPKDTLMISRTPEVTCVVVDVSHEDPEVKFNWYVDGVEVHNAKTKPREEQYASTYRVVSVLTVLHQDWLNGKEYKCKVSNKALPAPIEKTISKAKGQPREPQVCTLPPSREEMTKNQVSLSCAVKGFYPSDIAVEWESNGQPENNYKTTPPVLDSDGSFFLVSKLTVDKSRWQQGNVFSCSVMHEALHNHYTQKSLSLSPGK
light: DIQMTQSTSSLSASLGDRVTISCRASQDISNYLNWYQQKPDGTVKLLIYYTSRLHSGVPSRFSGSGSGTDYSLTISNLEQEDIATYFCQQDNTLPWTFGGGTKLEIKRTVAAPSVFIFPPSDEQLKSGTASVVCLLNNFYPREAKVQWKVDNALQSGNSQESVTEQDSKDSTYSLSSTLTLSKADYEKHKVYACEVTHQGLSSPVTKSFNRGEC
heavy 2: not shown
notes: also called 1+1 b12 format

binding result [2]: binds
B5: b17 (42p155z2) anti-5T4/CD40 bispecific antibody (bispecific antibody, human IgG1, kappa, N297A)
heavy 1: EVQLQQSGPELVKPGASVKISCKASGYAFSSSWMNWVKQRPGKGLEWIGRIYREDGHTNYNGKFKGKATLTADKSSTTAYMQLTSLTSEDSAVYFCANGGAMDYWGQGTSVTVSSASTKGPSVFPLAPSSKSTSGGTAALGCLVKDYFPEPVTVSWNSGALTSGVHTFPAVLQSSGLYSLSSVVTVPSSSLGTQTYICNVNHKPSNTKVDKKVEPKSCDKTHTCPPCPAPELLGGPSVFLFPPKPKDTLMISRTPEVTCVVVDVSHEDPEVKFNWYVDGVEVHNAKTKPREEQYASTYRVVSVLTVLHQDWLNGKEYKCKVSNKALPAPIEKTISKAKGQPREPQVCTLPPSREEMTKNQVSLSCAVKGFYPSDIAVEWESNGQPENNYKTTPPVLDSDGSFFLVSKLTVDKSRWQQGNVFSCSVMHEALHNHYTQKSLSLSPGKGGGGSGGGGSGGGGSGGGGSEVQLVESGGGLVQPGGSLRLSCAASGFAFRSYTMSWVRQAPGKGLEWVSTITHNGAITTYAESAQGRFTISRDNSKNTLYLQMNSLRAEDTAVYYCAQGGGSNYYRESWGQGTQVTVSS
light: B4 light
heavy 2: not shown
notes: also called 1+2 b17 format

Kd (human CD40-His protein [3]): 50.4 nM
koff (human CD40-His protein [3]): 0.0269 s⁻¹
kon (human CD40-His protein [3]): 534000 M⁻¹ s⁻¹
EC50 (read off the curve) [4]: ~0.2 nM
CD40 NF-κB luciferase reporter (Jurkat), RLU [5]: > 10 nM
EC50 [6]: 0.3 nM
EC50 (human CD40-His protein [7]): 1.95 nM
B6: 2p442 chimeric monospecific antibody (antibody, V domains shown)
VH: QVQLVESGGGLVQPGGSLRLSCVASGFTLDYFAIGWFRQAPGKEREGVSCISGGGSTRYADSVKGRFTISRDNAKNTVYLQMNSLTPEDTAVYYCAAARLLSRNCVPRDSGSWGQGTQVTVSS
notes: Chimeric monospecific antibody; also called parental 2p442
binding result (human OX40 protein): no binding (tested: 100 nM (highest concentration))
binding result (human 4-1BB protein): no binding (tested: 100 nM (highest concentration))

Kd (human CD40-His protein [3]): 69.6 nM
koff (human CD40-His protein [3]): 0.0337 s⁻¹
kon (human CD40-His protein [3]): 485000 M⁻¹ s⁻¹
EC50 (read off the curve) [4]: ~0.2 nM
B7: 2p442z10 humanized monoclonal antibody (antibody, V domains shown)
VH: B6 VH with Q13K, V23A, L29F, R45L, T77S, T86R, Q118L
notes: Humanized monoclonal antibody captured on AHC biosensor; also called VHHz10

Kd (human CD40-His protein [3]): 56.7 nM
koff (human CD40-His protein [3]): 0.0119 s⁻¹
kon (human CD40-His protein [3]): 210000 M⁻¹ s⁻¹
EC50 (read off the curve) [4]: ~0.2 nM
B8: 2p442z8 humanized monoclonal antibody (antibody, V domains shown)
VH: B6 VH with Q13K, V23A, L29F, E44G, T77S, T86R, A97R, Q118L
notes: Humanized monoclonal antibody captured on AHC biosensor; also called VHHz8

Kd (human CD40-His protein [3]): 34.8 nM
koff (human CD40-His protein [3]): 0.0125 s⁻¹
kon (human CD40-His protein [3]): 357000 M⁻¹ s⁻¹
EC50 (read off the curve) [4]: ~0.2 nM
B9: 2p442z9 humanized monoclonal antibody (antibody, V domains shown)
VH: B6 VH with Q13K, V23A, L29F, R45L, T77S, T86R, A97R, Q118L
notes: Humanized monoclonal antibody captured on AHC biosensor; also called VHHz9
